Assay results as given in patent publication US20230002798A1, “PROCESS FOR THE PREPARATION OF A FERMENTABLE SUGAR COMPOSITION AND THE FERMENTATION THEREOF” (WeissBioTech GmbH, priority 2019, published 2023).

B1: Gth: oligo-1,6-glucosidase of Parageobacillus thermoglucosidasius, amino acid sequence SEQ ID NO:2, expressed in Bacillus subtilis (protein, listed as Parageobacillus thermoglucosidasius)
chain: MERVWWKEAVVYQIYPRSFYDSNGDGIGDIRGIIAKLDYLKELGVDVVWLSPVYKSPNDDNGYDISDYRDIMDEFGTMADWKTMLEEMHKRGIKLVMDLVVNHTSDEHPWFIESRKSKDNPYRDYYIWRPGKNGKEPNNWESVFSGSAWEYDEMTGEYYLHLFSKKQPDLNWENPKVRREVYEMMKFWLDKGVDGFRMDVINMISKVPELPDGEPQSGKKYASGSRYYMNGPRVHEFLQEMNREVLSKYDIMTVGETPGVTPKEGILYTDPSRRELNMVFQFEHMDLDSGPGGKWDIRPWSLADLKKTMTKWQKELEGKGWNSLYLNNHDQPRAVSRFGDDGKYRVESAKMLATFLHMMQGTPYIYQGEEIGMTNVRFPSIEDYRDIETLNMYKERVEEYGEDPQEVMEKIYYKGRDNARTPMQWDDSENAGFTAGTPWIPVNPNYKEINVKAALEDPNSVFHYYKKLIQLRKQHDIIVYGTYDLILEDDPYIYAYTRTLGNEQLIVITNFSEKTPVFRLPDHIIYKTKELLISNYDVDEAEELKEIRLRPWEARVYKIRLP
modifications: WP_042386239.1 alpha-glucosidase
B2: Agl1: oligo-1,6-glucosidase of Bifidobacterium breve UCC2003, amino acid sequence SEQ ID NO:1, expressed in Bacillus subtilis (protein)
chain: MMTTFNRAIIPDAIRTNGATPNPWWSNAVVYQIYPRSFQDTNGDGFGDLKGITSRLDYLADLGVDVLWLSPVYKSPQDDNGYDISDYQDIDPLFGTLDDMDELLAEAHKRGLKVVMDLVVNHTSDEHAWFEASKNKDDEHADWYWWRPARPGTTPGEPGSEPNQWGSYFGGSAWEYCPERGEYYLHQFSKKQPDLNWENPAVRRAVYDMMNWWLDRGIDGFRMDVITLISKRTDANGRLPGEYGSELDDLPVGEEGYSNPNPFCADGPRQDEFLKEMRREVFAGREGFLTVGEAPGITPVRNEHITNPANGELDMLFLFDHVDFDCDGVKWKPLPLDLPGFKRIMAGYQTAVENVGWASLFTGNHDQPRVVSRWGDDSSEESRVRSAKALGLMLHMHRGTPYVYQGEELGMTNAHFTSLDQYRDLESLNAYRQRVEEAKVQSPESMLAGIAARGRDNSRTPMQWDGSAYAGFTAPDAATEPWISVNPNHAEINAAGEFDDPDSVYAFYKKLIALRHNSSIVAAGEWQLIDADDAHVYAFTRTLGNERLLVVVNLSGRTVDLPRESTELIAGGVTEPDIILSTYDAPHTVVSLANRELDPWEAAAVQL
modifications: Bifidobacterium breve UCC2003; ACM89182.1 alpha-glucosidase 1

Assays:
[1] = SSF of maltodextrins with added panose, 24 h (Example 1); parameters: species or system Yeast (Deltaferm® AL-18); settings: SSF 24 h; for panose concentration reduced by: 20 g/L panose added; for ethanol concentration increase by % compared to the negative control / ethanol concentration increase compared to the negative control: 300 g/L maltodextrin + 20 g/L panose, enzyme 187.5 kU per ton; for ethanol concentration increase compared to the negative control: glucoamylase 40 g/t, 30° C., pH 4.8
Experimental: (§1) Quantification of ethanol yield Ethanol was quantified via HPLC. Samples were taken at the end of the SSF or during SSF at set time points. Samples were centrifuged for 1 min at 17,000 xg and sterile filtered (0.2 μm). The samples were frozen at −80° C. prior to measurements. Ethanol was determined with an Aminex 87C column (Bio-Rad Laboratories, Inc., US) on a Shimadzu HPLC system.
(§2) Residual sugars were quantified via HPLC. Samples were taken at the end of the SSF or during SSF at set time points. Samples were centrifuged for 1 min at 17 000 xg and sterile filtered (0.2 μm). The samples were frozen at −80° C. prior to measurements. Residual sugars were determined with a Zorbax NH2 column (Agilent Technologies, Inc., US) on an Agilent 1200 HPLC system.
(§3) For simultaneous saccharification and fermentation (abbreviated SSF), the oligo-1,6-glucosidases—either Agl1 or Gth—were used as crude Bacillus extract. Glucidex® Maltodextrin 12 (Roquette, FR) was dissolved in SSF-medium (5 g/L yeast extract, 5 g/L peptone, 1 g/L K2HIPO4, 0.5 g/L Mg2SO4 in 50 mM citrate buffer, pH 4.8) at 300 g/L. Panose, isomaltose, isomaltotriose, maltose, maltotriose, or trehalose was added at 20 g/L. As a positive control, 20 g/L glucose was added instead of the respective sugar. The SSF medium containing starch hydrolysate (maltodextrins) and sugars was sterile filtered (0.2 μm). Yeast (Deltaferm® AL-18, WeissBioTech GmbH, Ascheberg, Germany) was grown in YINaC medium (50 g/L dextrose, 5 g/L yeast extract, 5 g/L peptone, 1 g/L K2HPO4, 0.5 g/L Mg2SO4*7H2O, 2 g/L NH4Cl in 50 mM sodium citrate, pH 4.8) for 2 days at 37° C. and harvested by centrifugation for 15 min at 5100 rpm and 8° C. Pelleted yeast was added to the SSF-medium at a final concentration of 6 g/L. Glucoamylase (Deltazym® GA L-E5, WeissBioTech GmbH, Ascheberg, Germany) was added at 40 g per ton of dry starch equivalent. The enzyme product Agl1 or Gth was added up to a final concentration of 187.5 kU per ton of dry starch equivalent. For the SSF with trehalose, Agl1 or Gth was added at 937.5 kU per ton of dry starch equivalent. As a negative control, an SSF as described above was run without oligo-1,6-glucosidase/enzyme product. The SSF was performed at 30° C. without stirring or shaking for 24 h.

[2] = SSF of maltodextrins with added trehalose, 24 h (Example 1); parameters: species or system Yeast (Deltaferm® AL-18); settings: SSF 24 h, maltodextrin + 20 g/L trehalose, enzyme 937.5 kU per ton
Experimental: as §1, §3

[3] = SSF of maltodextrins with added isomaltotriose, 24 h (Example 1); parameters: species or system Yeast (Deltaferm® AL-18); settings: SSF 24 h, maltodextrin + 20 g/L isomaltotriose, enzyme 187.5 kU per ton
Experimental: as §1, §3

[4] = SSF of maltodextrins with added maltose, 24 h (Example 1); parameters: species or system Yeast (Deltaferm® AL-18); settings: SSF 24 h, maltodextrin + 20 g/L maltose, enzyme 187.5 kU per ton
Experimental: as §1, §3

[5] = SSF of maltodextrins with added maltotriose, 24 h (Example 1); parameters: species or system Yeast (Deltaferm® AL-18); settings: SSF 24 h, maltodextrin + 20 g/L maltotriose, enzyme 187.5 kU per ton
Experimental: as §1, §3

[6] = SSF of commercial liquefied starch with added alpha-amylase, panose content (Example 4); parameters: species or system Yeast (Deltaferm® AL-18); settings: for reduction in panose compared to control / panose detected: after 60 h SSF; for panose detected: liquefied starch with glucoamylase and alpha-amylase, enzyme 187.5 kU per ton; for panose after 72 h: after 72 h SSF
Experimental: as §2
For SSF, the enzyme product was used as crude Bacillus extract. Acidified liquefied starch from a commercial plant, containing no detectable amounts of panose, isomaltose, isomaltotriose or trehalose, was brought to pH 4.8. SSF medium components (5 g/L yeast extract, 5 g/L peptone, 1 g/L K2HPO4, 0.5 g/L Mg2SO4 in 50 mM citrate buffer, pH 4.8) were added to liquefied starch (300 g/L). The SSF medium containing starch was sterile filtered (0.2 μm). Yeast (Deltaferm® AL-18, WeissBioTech GmbH, Ascheberg, Germany) was grown in YINaC medium (50 g/L dextrose, 5 g/L yeast extract, 5 g/L peptone, 1 g/L K2HIPO4, 0.5 g/L Mg2SO4*7H2O, 2 g/L NH4Cl in 50 mM sodium citrate, pH 4.8) for 2 days at 37° C. and harvested by centrifugation for 15 min at 5100 rpm and 8° C. Pelleted yeast was added to the SSF at a final concentration of 6 g/L. Glucoamylase (Deltazym® GA L-E10, WeissBioTech GmbH, Ascheberg, Germany) was added at 200 g per ton of dry starch equivalent. Alpha-amylase (Fuelzyme®, BASF) was added at 200 g per ton of dry starch equivalent to simulate non-complete removal of alpha-amylase in industrial processes, which is often the cause for increased non-fermentable sugars. The enzyme product Agl1 or Gth was added to a final concentration of 187.5 kU per ton of dry starch equivalent. As control, no oligo-1,6-glucosidase/enzyme product was added. The SSF was performed at 30° C. without stirring or shaking for 72 h.

[7] = Temperature range of enzyme activity; format: biochemical; settings: 30° C.-80° C. investigated
Experimental: The temperature range was investigated from 30° C.-80° C. by incubating the enzymes and measuring their activity at the respective temperature.

[8] = Lab-scale SSF run with 32% dextrins supplemented with panose; parameters: species or system alcohol yeasts (Deltaferm® AL-18); settings: 30° C., pH 4.8, 72 h, glucoamylase 415 g/t, yeast 6 g/L

Molecule	panose concentration reduced by [1]	ethanol concentration increase by % compared to the negative control [1]	ethanol concentration increase compared to the negative control [1]	ethanol concentration increase by % compared to the negative control [2]	ethanol concentration increase compared to the negative control [2]	ethanol concentration increase by % compared to the negative control [3]	ethanol concentration increase compared to the negative control [3]	ethanol concentration increase by % compared to the negative control [4]	ethanol concentration increase compared to the negative control [4]	ethanol concentration increase by % compared to the negative control [5]	ethanol concentration increase compared to the negative control [5]	reduction in panose compared to control [6]	panose detected [6]	panose after 72 h [6]	temperature range [7]	increase of ethanol yield [8]
B1	96%	85%	0.94 percentage points (v/v)	31%	0.26 percentage points (v/v)	48%	0.57 percentage points (v/v)	2.8%	0.06 percentage points (v/v)	0%	0.00 percentage points (v/v)	57%	2.3 g/L	completely hydrolysed	30-70 °C	2%
B2	96%	92%	1.01 percentage points (v/v)	226%	1.86 percentage points (v/v)	40%	0.48 percentage points (v/v)	1.5%	0.03 percentage points (v/v)	1%	0.03 percentage points (v/v)	50%	2.7 g/L	completely hydrolysed	30-50 °C	2%
